Among the data in patent US20210179715A1 (published 2021) are Kd values, retold here.

Positions count from the first letter of the chain named. Names may count otherwise. Read-outs that look alike come from different tables or passages of the source.

One test deals with T1, human Ly6G6D polypeptide (UniProt O95868 20-104).
T1 chain: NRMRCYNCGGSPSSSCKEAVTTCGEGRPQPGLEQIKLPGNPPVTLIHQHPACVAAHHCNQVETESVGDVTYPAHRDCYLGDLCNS
The experiment in a line: BIAcore.

Test [1] addresses T2, human LY6G6D-Fc (UniProt O95868 20-104).
T2 chain: T1 chain
The experiment in a line: BIAcore; 37 C. For orientation: In SPR one partner is held on a chip, and binding of the other changes the refractive index at the surface.

For a further test, the target named is SNA. Kind of test: BIAcore.
The next test has as its target NNV. Kind of test: BIAcore.
Another test addresses QNT. Kind of test: BIAcore.
The next test concerns the target NNA. Kind of test: BIAcore.
A further test deals with QNV. Kind of test: BIAcore.
A further test deals with GNT. The experiment in a line: BIAcore.
In the next test the target is ANT. Kind of test: BIAcore.
Another test concerns the target SNV. The experiment in a line: BIAcore.
The target of the next test is SNT. Kind of test: BIAcore.
Another test concerns the target Parental NNT. The experiment in a line: BIAcore.
The next test addresses Chimeric 1G4. Kind of test: Biacore.
For the next test, the target named is 4H7. The experiment in a line: BIAcore; 37 C.
The target of test [2] is hu.20A12.IA.SNA.H12(V3-23).L2(K1-5). The experiment in a line: BIAcore; 37 C.
The target of test [3] is hu.20A12.IA.GNT.H12(V3-23).L2(K1-5). Kind of test: BIAcore; 37 C.
For test [4], the target named is hu.20A12.IA.QNV.H12(V3-23).L2(K1-5). Kind of test: BIAcore; 37 C.
A further test concerns the target SS. Kind of test: BIAcore.
In the next test the target is SA. Kind of test: BIAcore.
The target of a further test is IS. Kind of test: BIAcore.
The target in test [5] is T2, human LY6G6D-Fc. The experiment in a line: BIAcore; 37 C.

B1: hu6E10.K1-5.V4-4 (antibody, V domains shown)
VH: EQQLQESGPGLVKPPGTLSLTCAVSGLSLSTNSINWVRQPPGKGLEWIGYIYHGDGIADYASWAKGRFTISKDSSKTQVSLKLSSVTAADTAVYFCASGAGYSLFTLWGPGTLVTVSS
VL: DAQLTQSPSTLSASVGDRVTITCQSSESVWHNNWLAWFQQKPGKRPKLLIYGASTLASGVPSRFSGSGSGTEFTLTISSLQPDDFATYYCAGGYSSSDAHVFGGGTKVEIK
As for B1, the Kd in the test with human Ly6G6D polypeptide came out at 3340 pM.

B2: hu6E10.K3-20.V4-4 (antibody, V domains shown)
VH: B1 VH
VL: EAVLTQSPGTLSLSPGERATLSCQSSESVWHNNWLAWFQQKPGQRPRLLIYGASTLASGVPDRFSGSGSGTDFTLTISRLEPEDFAVYYCAGGYSSSDAHVFGGGTKVEIK
In turn, B2 registered a Kd with human Ly6G6D polypeptide of 3110 pM.

B3: hu6E10.K1-5.V3-48 (antibody, V domains shown)
VH: EQQLVESGGGLVQPGGSLRLSCAVSGLSLSTNSINWVRQAPGKGLEWIGYIYHGDGIADYASWAKGRFTISKDSAKNSVYLQMNSLRAEDTAVYFCASGAGYSLFTLWGPGTLVTVSS
VL: B1 VL
The molecule B3 registered a Kd with human Ly6G6D polypeptide of 1030 pM.

B4: hu6E10.K4-1.V4-4 (antibody, V domains shown)
VH: B1 VH
VL: DAVLTQSPDSLAVSLGERATINCQSSESVWHNNWLAWFQQKPGQRPKLLIYGASTLASGVPDRFSGSGSGTDFTLTISSLQAEDVAVYYCAGGYSSSDAHVFGGGTKVEIK
In turn, B4 yielded a Kd with human Ly6G6D polypeptide of 3600 pM.

B5: hu6E10.K1-5.V3-53 (L1H1) (antibody, V domains shown)
VH: B3 VH with V12I, A75S, S78T
VL: B1 VL
Turning to B5, the Kd in the test with human Ly6G6D polypeptide was determined as 1630 pM.

B6: rb20A12.IA (C35I-C50A) chimeric Fab (Fab, V domains shown)
VH: QQQLEESGGDLVKPGASLTLTCTASGFDFVNNAMIWVRQAPGKGLEWIAALSFADNTAYYATWASGRFTISKISSTTVTLRMTSLTGADTATYFCMRGDLWGPGTLVTVSS
VL: DIVMTQTPSSVSAAVGGTVTINCQASESITRYLNWYQQKPGQPPKLLIYDASKLPSGVPSRFKGSGSGTQFTLTTSDLECADAATYYCQSTSFRGRSYNNTFGGGTEVVVK
For the molecule B6, binding in the test with human LY6G6D-Fc [1] was characterised by a dissociation constant (Kd) of 704 pM.

B7: LY6G6D (other)
chain: T1 chain
For the molecule B7, the Kd turned out to be 270 pM with SNA; 220 pM with NNV; 280 pM with QNT; 260 pM with NNA; 220 pM with QNV; 340 pM with GNT. Also, the Kd worked out at 260 pM in the test with ANT; 230 pM with SNV; 250 pM with SNT; 430 pM with Parental NNT; 2700 pM with Chimeric 1G4.

B8: Ly6G6D (Fc fusion)
chain: T1 chain
Take B8: the Kd with 4H7 was 360 pM; in test [2], 105 pM; in test [3], 122 pM; in [4] it was 33.5 pM.

B9: Ly6G6D (other)
chain: T1 chain
As for B9, the Kd with SS was 2700 pM; with SA, 2740 pM; in the test with IS, 1260 pM.

B10: hu6E10.K3-20.V3-53 (L1H1) (antibody, V domains shown)
VH: B3 VH with V12I, A75S, S78T
VL: B2 VL
Turning to B10, binding in the test with human Ly6G6D polypeptide was characterised by a dissociation constant (Kd) of 1300 pM.

B11: hu6E10.K3-20.V3-48 (antibody, V domains shown)
VH: B3 VH
VL: B2 VL
As for B11, the Kd in the test with human Ly6G6D polypeptide came to 1300 pM.

B12: hu6E10.K4-1.V3-48 (antibody, V domains shown)
VH: B3 VH
VL: B4 VL
The molecule B12 registered a Kd with human Ly6G6D polypeptide of 1410 pM.

B13: hu6E10.K4-1.V3-53 (antibody, V domains shown)
VH: B3 VH with V12I, A75S, S78T
VL: B4 VL
Consider B13, for which binding with human Ly6G6D polypeptide was put at a Kd of 1660 pM.

B14: 1G4 Fab (Fab, V domains shown)
VH: EVQLVQSGAEVKKPGASVKVSCKASGYTFTTYVMHWVRQAPGQGLEWMGYINPYNDGTKYNEKFKGRVTMTRDTSISTAYMELSRLRSDDTAVYYCGRRNFDYWGQGTLVTVSS
VL: DIVMTQSPDSLAVSLGERATINCKSSQSLLLSGNQENYLAWHQQKPGQPPKTLITWASTRISGVPDRFSGSGSGTDFTLTISSLQAEDVAVYYCQQSYSAPYTFGGGTKVEIKR
Consider B14, for which, in the test with human LY6G6D-Fc [5], the affinity, expressed as Kd, was 1450 pM.

A word on the Kd: it is a measure of binding affinity in units of concentration.
